What was measured:
[1] = target: E2 ectodomain of HCV strain 1a142 (hepatitis C virus (genotype 1a, strain 1a142)); test: ELISA
[2] = target: E2 ectodomain of HCV strain 1a116 (hepatitis C virus (genotype 1a, strain 1a116))

B1: HEPC108 IgG (antibody, V domains shown)
VH: QVQLVQSGAEVKKPGSSVKVSCKASGDTFSSSAISWVRQAPGQGLEWMGGSIPIFGATKYAQKFQGRVTITTDKSTSTAYMELSSLRFEDTAVYYCARASIVNISGFVRFRFDSWGQGTLVTVSS
VL: DIQMTQSPSSLSASVGDRVTITCQASQDISNYLNWYQQKPGKAPKLLIYDVSNLEIGVPSRFSGSGSGTEFTLTINSLQPEDLATYFCQHYDDVPPVYTFGQGTSLEIK
**Q.** For B1, which fold weaker binding than HEPC74 and AR3C (ELISA) [1] is on record?
**A.** Its fold weaker binding than HEPC74 and AR3C (ELISA) is 1.5 fold.

**Q.** And the HCVpp neutralization IC50 (1a116 HCVpp, Huh7 cells) [2]?
**A.** The HCVpp neutralization IC50 (1a116 HCVpp, Huh7 cells) was 0.12 mg/L.

From paper doi:10.1101/2025.08.04.668577
